Measurements reported in article PMC2440032 (2008).

Biological target: T1, odorranalectin (Odorrana grahami)
T1 chain: YASPKCFRYPNGVLACT
Experiment: SPR; glycans on fetuin (lectin-type recognition of a glycoprotein); calcium not required

B1: fetuin (protein)
chain: IPLDPVAGYKEPACDDPDTEQAALAAVDYINKHLPRGYKHTLNQIDSVKVWPRRPTGEVYDIEIDTLETTCHVLDPTPLANCSVRQQTQHAVEGDCDIHVLKQDGQFSVLFTKCDSSPDSAEDVRKLCPDCPLLAPLNDSRVVHAVEVALATFNAESNGSYLQLVEISRAQFVPLPVSVSVEFAVAATDCIAKEVVDPTKCNLLAEKQYGFCKGSVIQKALGGEDVRVTCTLFQTQPVIPQPQPDGAEAEAPSAVPDAAGPTPSAAGPPVASVVVGPSVVAVPLPLHRAHYDLRHTFSGVASVESSSGEAFHVGKTPIVGQPSIPGGPVRLCPGRIRYFKI
Kd: 211 nM
